In assay [1] the target is human adenosine receptor A1 (human) (UniProt P30542). The experiment in a line: flow cytometry on HEK293T-A1 cells; anti-FLAG 2 ug/mL, positive control; duplicate 1. A general note: A flow cytometer gives signals particle by particle.
Assay [2] shares this target. Kind of assay: flow cytometry on HEK293T-A1 cells; anti-FLAG 2 ug/mL, positive control; duplicate 2.
In assay [3] the target is T1, human adenosine receptor A3 (human, UniProt P0DMS8 1-318).
T1 construct: whole, on cells; the tag is not described; also called A3R; human A3R
T1 sequence (looked up): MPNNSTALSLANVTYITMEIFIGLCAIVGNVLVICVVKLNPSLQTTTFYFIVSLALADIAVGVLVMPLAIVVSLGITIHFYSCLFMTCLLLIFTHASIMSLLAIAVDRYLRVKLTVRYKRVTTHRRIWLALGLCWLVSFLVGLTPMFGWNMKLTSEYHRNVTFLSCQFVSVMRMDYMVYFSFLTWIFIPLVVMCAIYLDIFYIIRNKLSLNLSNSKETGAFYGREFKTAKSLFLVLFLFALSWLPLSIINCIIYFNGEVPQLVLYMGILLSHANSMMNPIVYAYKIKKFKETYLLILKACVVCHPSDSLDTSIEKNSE
Kind of assay: flow cytometry on HEK293T-A3 cells; anti-FLAG 2 ug/mL, positive control; duplicate 1.

Assay [4] addresses T1, human adenosine receptor A3. The experiment in a line: flow cytometry on HEK293T-A3 cells; anti-FLAG 2 ug/mL, positive control; duplicate 2.
Assay [5] has as its target T2, human adenosine A2A receptor (A2aR) (human, UniProt P29274 1-412). The experiment in a line: flow cytometry on HEK293T-A2A cells; anti-FLAG 2 ug/mL, positive control; duplicate 1.
The target of assay [6] is T2, human adenosine A2A receptor (A2aR). The experiment in a line: flow cytometry on HEK293T-A2A cells; anti-FLAG 2 ug/mL, positive control; duplicate 2.
In assay [7] the target is T3, human adenosine receptor A2B (human, UniProt P29275 1-332).
T3 construct: whole, on cells; the tag is not described; also called A2bR; human A2bR
T3 sequence (looked up): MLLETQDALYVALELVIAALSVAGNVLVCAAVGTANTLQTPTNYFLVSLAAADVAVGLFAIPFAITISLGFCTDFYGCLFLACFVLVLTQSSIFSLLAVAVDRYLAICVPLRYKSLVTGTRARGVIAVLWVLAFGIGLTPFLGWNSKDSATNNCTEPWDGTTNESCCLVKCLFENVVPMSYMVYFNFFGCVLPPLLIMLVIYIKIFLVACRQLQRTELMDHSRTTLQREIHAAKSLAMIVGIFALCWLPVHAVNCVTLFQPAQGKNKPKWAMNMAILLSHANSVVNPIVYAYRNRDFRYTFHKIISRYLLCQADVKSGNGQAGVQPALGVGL
Kind of assay: flow cytometry on HEK293T-A2B cells; anti-FLAG 2 ug/mL, positive control; duplicate 1.

Assay [8] deals with T3, human adenosine receptor A2B. The experiment in a line: flow cytometry on HEK293T-A2B cells; anti-FLAG 2 ug/mL, positive control; duplicate 2.
For assay [9], the target named is T4, mouse adenosine receptor A2A (mouse, UniProt Q60613 1-410).
T4 construct: whole, on cells; the tag is not described; also called mouse A2aR; mouse A2R
T4 sequence (Q60613 whole entry): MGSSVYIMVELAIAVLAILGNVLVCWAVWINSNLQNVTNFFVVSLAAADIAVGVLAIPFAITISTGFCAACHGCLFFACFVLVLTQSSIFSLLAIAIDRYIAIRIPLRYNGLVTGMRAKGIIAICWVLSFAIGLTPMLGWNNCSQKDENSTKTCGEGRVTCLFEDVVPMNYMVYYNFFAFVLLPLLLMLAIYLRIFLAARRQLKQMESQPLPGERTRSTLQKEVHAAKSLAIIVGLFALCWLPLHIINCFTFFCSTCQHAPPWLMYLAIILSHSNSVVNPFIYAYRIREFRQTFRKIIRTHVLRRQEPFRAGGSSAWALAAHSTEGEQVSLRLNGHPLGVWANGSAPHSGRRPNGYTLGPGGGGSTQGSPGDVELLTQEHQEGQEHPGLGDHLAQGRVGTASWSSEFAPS
The experiment in a line: flow cytometry on HEK293T-mA2A cells; anti-FLAG 2 ug/mL, positive control; duplicate 1.

For assay [10], the target named is T4, mouse adenosine receptor A2A. Kind of assay: flow cytometry on HEK293T-mA2A cells; anti-FLAG 2 ug/mL, positive control; duplicate 2.
The test system of assay [11] is tumor. The note with it: mice treated with A2aR antagonist; background statement; cited from earlier work.
Assay [12] has as its target human adenosine receptor A1 (human) (UniProt P30542). Kind of assay: flow cytometry on HEK293T-A1 cells; isotype control 10 nM; duplicate 1.
Assay [13] has the same target. Kind of assay: flow cytometry on HEK293T-A1 cells; isotype control 10 nM; duplicate 2.
Assay [14] has the same target. Kind of assay: flow cytometry on HEK293T-A1 cells; isotype control 50 nM; duplicate 1.
For assay [15] the target is unchanged. The experiment in a line: flow cytometry on HEK293T-A1 cells; isotype control 50 nM; duplicate 2.
In assay [16] the target is T1, human adenosine receptor A3. The experiment in a line: flow cytometry on HEK293T-A3 cells; isotype control 10 nM; duplicate 1.
Assay [17] has the same target. The experiment in a line: flow cytometry on HEK293T-A3 cells; isotype control 10 nM; duplicate 2.
For assay [18] the target is unchanged. Kind of assay: flow cytometry on HEK293T-A3 cells; isotype control 50 nM; duplicate 1.
The target is the same in assay [19]. Kind of assay: flow cytometry on HEK293T-A3 cells; isotype control 50 nM; duplicate 2.
Assay [20] concerns the target T2, human adenosine A2A receptor (A2aR). The experiment in a line: flow cytometry on HEK293T-A2A cells; isotype control 10 nM; duplicate 1.
Assay [21] has the same target. Kind of assay: flow cytometry on HEK293T-A2A cells; isotype control 10 nM; duplicate 2.
Assay [22] has the same target. Kind of assay: flow cytometry on HEK293T-A2A cells; isotype control 50 nM; duplicate 1.
Assay [23] shares this target. The experiment in a line: flow cytometry on HEK293T-A2A cells; isotype control 50 nM; duplicate 2.
The target of assay [24] is T3, human adenosine receptor A2B. Kind of assay: flow cytometry on HEK293T-A2B cells; isotype control 10 nM; duplicate 1.
For assay [25] the target is unchanged. Kind of assay: flow cytometry on HEK293T-A2B cells; isotype control 10 nM; duplicate 2.
The target is the same in assay [26]. The experiment in a line: flow cytometry on HEK293T-A2B cells; isotype control 50 nM; duplicate 1.
Assay [27] shares this target. Kind of assay: flow cytometry on HEK293T-A2B cells; isotype control 50 nM; duplicate 2.
The target in assay [28] is T4, mouse adenosine receptor A2A. The experiment in a line: flow cytometry on HEK293T-mA2A cells; isotype control 10 nM; duplicate 1.
Assay [29] shares this target. Kind of assay: flow cytometry on HEK293T-mA2A cells; isotype control 10 nM; duplicate 2.
Assay [30] shares this target. Kind of assay: flow cytometry on HEK293T-mA2A cells; isotype control 50 nM; duplicate 1.
For assay [31] the target is unchanged. Kind of assay: flow cytometry on HEK293T-mA2A cells; isotype control 50 nM; duplicate 2.
In assay [32] the target is T2, human adenosine A2A receptor (A2aR). Kind of assay: cell-based or functional assay.
For assay [33], the target named is T1, human adenosine receptor A3. Kind of assay: flow cytometry on HEK293T cells stably expressing human A3R.
The target of assay [34] is T3, human adenosine receptor A2B. Kind of assay: flow cytometry on HEK293T cells stably expressing human A2bR.
The target in assay [35] is T4, mouse adenosine receptor A2A. The experiment in a line: flow cytometry on HEK293T cells stably expressing mouse A2aR.
Assay [36] has as its target T5, human A2aR (Homo sapiens, UniProt P29274).
T5 construct: expressed in transfected cells; host or cells: Expi293
The experiment in a line: FACS screening of hybridoma clones on human A2aR-expressing Expi293 cells. It counts as binding. Conditions: antibodies from hybridoma clones. On the procedure:
(§1) Serum titration was performed using Fluorescence-Activated Cell Sorting (FACS) pursuant to standard procedures. Human A2aR-expressing Expi293 cells were first added to 96-well plate (1×10^5 cells per well), 50 μl of serial diluted serum (1:50, 1;150, 1:450, 1:[…], 1:12150) from each individual mouse was incubated with cells for 30 min. on ice. After washing with FACS buffer (2% Fetal bovine serum, 2 mM EDTA in PBS), Alex Fluor 647-conjugated anti mouse IgG was added and incubated for 20 min on ice. Cells were resuspending with 100 μl FACS buffer after two times wash and ready for FACS analysis (BD LSR II Flow Cytometer, HTS). […] (MFI: mean fluorescence intensity).
(§2) Primary screening of the hybridoma supernatants in the 96-well plates was performed using the same FACS procedure as described for serum titration except following changes: 1) Human A2aR-expressing Expi293 cells (expressing GFP) were mixed at 1:1 ratio with parental Expi293 (no A2aR expression) and added to 96-well plates (2×10^5 cells per well), 2) 50 μl hybridoma supernatant transferred from each well of 96-well plates was incubated with cells for 30 min. on ice.
(§3) Sub-cloning was performed by limiting dilution method. In short, the positive wells identified by FACS were seeded into 96-well plate at an average density of 1 cell/well. The […] was placed in incubator for 7-10 days to allow the growth of the cells. The growth of cells was monitored periodically. At about day 4, the wells on the plate were observed under phase contrast microscopy and the wells which appeared to have single colony growing (i.e., only one clumping of hybridomas) were recorded. The cells from the single colony wells were screed by FACS using the same procedure as described for primary screening of hybridoma when the confluence of the cell reached about 50%.

Assay [37] concerns parental Expi293 cells. The experiment in a line: FACS screening of hybridoma clones on parental Expi293 cells. It counts as binding. The note with it: antibodies from hybridoma clones. On the procedure:
as §1, §2, §3

Where a chain is given by its changes, count along the chain named.

human adenosine receptor A1 (human), sequence (P30542 whole entry): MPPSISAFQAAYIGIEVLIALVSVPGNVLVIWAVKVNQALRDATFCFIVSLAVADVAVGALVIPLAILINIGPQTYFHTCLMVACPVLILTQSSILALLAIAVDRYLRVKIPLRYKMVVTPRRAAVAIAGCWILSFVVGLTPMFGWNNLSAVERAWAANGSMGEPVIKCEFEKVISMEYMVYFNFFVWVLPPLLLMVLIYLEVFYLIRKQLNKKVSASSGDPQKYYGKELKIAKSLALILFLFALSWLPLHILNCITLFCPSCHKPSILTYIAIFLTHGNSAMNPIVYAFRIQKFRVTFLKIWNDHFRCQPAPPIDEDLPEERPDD
T2 sequence (P29274 whole entry): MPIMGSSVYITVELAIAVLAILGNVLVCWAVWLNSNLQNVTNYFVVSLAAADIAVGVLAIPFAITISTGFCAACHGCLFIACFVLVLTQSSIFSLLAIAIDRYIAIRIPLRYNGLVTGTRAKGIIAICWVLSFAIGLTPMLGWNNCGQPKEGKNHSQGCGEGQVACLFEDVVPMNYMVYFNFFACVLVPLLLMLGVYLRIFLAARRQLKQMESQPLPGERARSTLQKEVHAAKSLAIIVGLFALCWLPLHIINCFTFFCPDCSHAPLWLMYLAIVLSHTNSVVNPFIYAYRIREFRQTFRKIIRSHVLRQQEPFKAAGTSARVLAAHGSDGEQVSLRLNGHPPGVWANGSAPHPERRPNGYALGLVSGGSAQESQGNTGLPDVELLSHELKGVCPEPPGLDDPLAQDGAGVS
T5 sequence (P29274 whole entry): as above

For Anti-FLAG antibody (Abcam, ab72469), the Geo Mean amounted to 53.3 in assay [1]; 121 in assay [2]; 48.2 in assay [3]; 47.4 in [4]; 183 in assay [5]; 223 in assay [6]. The Geo Mean was found to be 78.6 in assay [7], 50.1 in [8], 70.4 in [9] and 105 in assay [10].

Turning to `Nc1nc(NCCc2ccc(O)cc2)nc2nc(-c3ccco3)nn12` [ZM241385], the tumor growth entry in assay [11] is listed as “significant delay in tumor growth”.

mouse IgG2a isotype control (antibody): the Geo Mean stood at 2.48 in [12]; 2.24 in assay [13]; 2.5 in [14]; 2.7 in assay [15]; 1.9 in assay [16]; 1.81 in [17]. In addition, the Geo Mean in assay [18] came out at 1.87; in [19] it was 1.84; in assay [20] it was 2.97; in assay [21] it was 2.82; in [22] it was 2.92; in assay [23], 2.83. The Geo Mean in [24] stood at 2.42; in assay [25], 2.41; in assay [26] it was 2.33; in [27] it was 2.69; in assay [28] it was 2; in assay [29], 2.39. In addition, the Geo Mean in [30] came out at 2.05; in [31], 2.06.

B1: anti-human A2aR monoclonal antibody 3F6-9G5 (mouse IgG2a format) (antibody, V domains shown)
VH: QVQLQQPGTELVKPGAPVRLSCKASGFAFTSYWMNWVRQRPGRGLEWIGRIDPSDSEAHYHHKFWGKATLTVDKSSSTVYIQLNGLTSEDSAVYYCLRSLYGKGDYWGHGTTLTVSS
VL: DVLMTQTPLSLSVRLGDQASISCRSSQSLVHRNGNTYLEWYLQRPGQSPKLLIYKVSNRFSGVPDRFSGSGSGTDFTLKISRVEAEDLGVYYCYQGSHVPLTFGSGTKLEIK
notes: Tested as whole mouse IgG2a / kappa, purified from hybridoma supernatant or made recombinantly in Expi293 cells
Turning to B1, in assay [32], the “IC50 (M), cAMP-Glo assay of NECA-induced cAMP in HEK293 cells stably expressing human A2aR” value came out at 1.57e-09 M. The binding result is “no binding (tested: 2, 10 and 50 nM tested)” in [33]; “no binding (tested: 2, 10 and 50 nM tested)” in assay [34]; “no binding (tested: 2, 10 and 50 nM tested)” in assay [35].

B2: anti-human A2aR monoclonal antibody 3F8-12E9 (antibody, mouse IgG2a, V domains shown)
VH: B1 VH with R19K, A28T, S31R, R38K, A58T, H61N, V79A, G85S, H109Q
VL: B1 VL with R14G, L29I, R32S
Consider B2, for which the “IC50 (M), cAMP-Glo assay of NECA-induced cAMP in HEK293 cells stably expressing human A2aR” value in assay [32] was 4.35e-09 M. Moreover, the “binding to human A2aR-expressing cells (FIG. 2)” value in [36] was “specific binding”. The “binding to parental Expi293 cells (FIG. 2)” value in [37] is reported as “not to parental Expi293 cells”.

The record behind these values is US20230340132A1, “ANTI-ADENOSINE RECEPTOR (A2aR) ANTIBODIES” (NA Biotech Corp, priority 2020, published 2023).
